The values that follow come from patent US20070027086A1.

A value given as a limit tells only on which side of the number the result lay.

Experiment [1] addresses human MC4-receptor (human) (UniProt P32245). The experiment can be described thus: competition with [^125I]NDP-MSH on COS cells expressing human MC4 receptor; Ki by Cheng-Prusoff.
In experiment [2] the target is human MC5-receptor (human) (UniProt P33032). The experiment can be described thus: competition with [^125I]NDP-MSH on COS cells expressing human MC5 receptor; Ki by Cheng-Prusoff.
Sequence of human MC5-receptor (human) (P33032 whole entry): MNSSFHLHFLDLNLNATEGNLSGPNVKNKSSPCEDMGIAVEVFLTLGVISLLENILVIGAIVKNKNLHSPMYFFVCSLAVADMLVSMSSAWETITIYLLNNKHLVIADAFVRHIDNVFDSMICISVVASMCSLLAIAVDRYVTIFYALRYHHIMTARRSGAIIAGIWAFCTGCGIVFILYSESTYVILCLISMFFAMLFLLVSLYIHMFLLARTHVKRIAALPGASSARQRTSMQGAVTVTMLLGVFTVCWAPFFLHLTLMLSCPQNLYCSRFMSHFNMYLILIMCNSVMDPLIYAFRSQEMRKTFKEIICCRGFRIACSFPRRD
Experiment [3] concerns the target human MC4-receptor (human) (UniProt P32245). The experiment can be described thus: ratio of Ki values, competition with [^125I]NDP-MSH on COS-1 cells expressing human MC receptors.
The target of experiment [4] is human MC5-receptor (human) (UniProt P33032). The description is as above.

Sequence of human MC4-receptor (human) (P32245 whole entry): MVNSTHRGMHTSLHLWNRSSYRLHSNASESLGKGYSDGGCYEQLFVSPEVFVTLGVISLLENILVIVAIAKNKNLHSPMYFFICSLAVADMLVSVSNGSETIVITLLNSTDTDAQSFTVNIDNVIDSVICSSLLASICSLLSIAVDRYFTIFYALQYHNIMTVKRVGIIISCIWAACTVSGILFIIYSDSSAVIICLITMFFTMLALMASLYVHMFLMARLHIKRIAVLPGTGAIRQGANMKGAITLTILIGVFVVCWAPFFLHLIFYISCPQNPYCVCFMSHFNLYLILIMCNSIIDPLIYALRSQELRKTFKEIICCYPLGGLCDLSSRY

As usually defined, the Ki is the dissociation constant of the complex between target and ligand, obtained from inhibition or displacement. A low value points to a stronger hold on the target. Consider “MS05 (Ser-Ser-Ile-Ile-Ser-His-Phe-Arg-Trp-Gly-Lys-Pro-Val-NH2) (peptide)”, for which the Ki in experiment [1] and in experiment [2] was greater than 50 µM throughout. The fold lower affinity than for the MC1-receptor in experiment [3] and in experiment [4] was greater than 65000 fold throughout.
